Experimental data taken from US20240309116A1 (ZHEJIANG SHIMAI PHARMACEUTICAL, published 2024).

B1: anti-ROR1 3A3 Fab (Fab, V domains shown)
VH: EVQLVESGGGVVQPGRSLRLSCAASGFTFSSYGMHWVRQAPGKGLEWVAVISYDGSNKYYADSVKGRFTISRDNSKNTLYLQMNSLRAEDTAVYYCAKDLDYSLWFDPWGQGTLVTVSS
VL: DVVMTQSPLSLPVTPGEPASISCRSSQSLLQSNGYNYVEWFLQKPGQSPQLLIYLGSYRASGVPDRFSGSGSGTDFTLKISRVEAEDVGVYYCMQGTHWPLFTFGPGTKVDIK
notes: Human Fab from a phage library, kappa light chain, hexahistidine-tagged, expressed in E. coli HB2151; detected with an anti-FLAG antibody; also called Fab clone 3A3
B2: anti-ROR1 monoclonal antibody 3A3 (antibody, V domains shown)
VH: B1 VH
VL: DVVMTQSPLSLPVTPGEPASISCRSSQSLLQSNGYNYVEWFLQKPGQSPQLLIYLGSYRASGVPDRFSGSGSGTDFTLKISRVEAEDVGVYYCMQGTHWPLFTFGPGTKVDIKR
notes: Intact human IgG1 kappa (Fd of the Fab fused to human IgG1 Fc), about 150 kDa non-reduced; also called 3A3 mAb; 3A3 Mab
B3: anti-ROR1 2H3 Fab (Fab, V domains shown)
VH: QVQLVQSGAEVKKTGSSVKVSCKASGYTFTYRYLHWVRQAPGQALEWMGWITPFNGNTNYAQKFQDRVTITRDRSMSTAYMELSSLRSEDTAMYYCARSGPRGDYVLDYWGQGTLVTVSS
VL: EIVLTQSPATLSLSPGERATLSCRASQSVSSYLAWYQQKPGQAPRLLIYDASNRATGIPARFSGSGSGTDFTLTISSLEPEDFAVYYCQQRSNWPLTFGGGTKVEIK
notes: Human Fab from a phage library, kappa light chain, hexahistidine-tagged, expressed in E. coli HB2151; also called Fab clone 2H3
B4: anti-ROR1 monoclonal antibody 2H3 (antibody, V domains shown)
VH: B3 VH
VL: EIVLTQSPATLSLSPGERATLSCRASQSVSSYLAWYQQKPGQAPRLLIYDASNRATGIPARFSGSGSGTDFTLTISSLEPEDFAVYYCQQRSNWPLTFGGGTKVEIKR
notes: Intact human IgG1 kappa (Fd of the Fab fused to human IgG1 Fc), about 150 kDa non-reduced; also called 2H3 mAb; 2H3 Mab

Assays:
[1] = target: T1, recombinant human ROR1 (full-length extracellular domain) (human, UniProt Q01973 30-406); experiment: ELISA, ROR1 coated on the plate, Fab detected with HRP anti-FLAG antibody
T1 construct: extracellular domain; Bought protein; also called human ROR1 protein; full extracellular domain
T1 sequence (Q01973 30-406): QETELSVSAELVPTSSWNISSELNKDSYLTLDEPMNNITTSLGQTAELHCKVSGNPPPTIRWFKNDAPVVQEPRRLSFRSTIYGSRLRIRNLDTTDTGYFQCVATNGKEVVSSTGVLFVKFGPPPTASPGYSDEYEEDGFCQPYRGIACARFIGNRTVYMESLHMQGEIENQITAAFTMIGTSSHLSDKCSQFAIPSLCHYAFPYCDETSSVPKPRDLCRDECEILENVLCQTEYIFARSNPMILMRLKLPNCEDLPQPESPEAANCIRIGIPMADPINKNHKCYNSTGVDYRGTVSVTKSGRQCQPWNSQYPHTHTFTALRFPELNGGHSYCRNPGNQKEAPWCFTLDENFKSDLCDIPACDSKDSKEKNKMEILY
Protocol: The hexahistidine-tagged Fabs 2H3 and 3A3 were expressed in E. coli strain HB2151 and purified from the soluble fraction of periplasm by using the Ni-NTA resin. Then ELISA was performed by using standard protocols to measure binding affinity to recombinant human ROR1 (full-length extracellular domain). Briefly, the recombinant human ROR1 (ACROBiosystems) was coated on Corning EIA/RIA high-binding 96-well plates (Corning Inc.) at 50 ng per well overnight at 4° C. and blocked with 3% nonfat milk in PBS (pH7.4). Fivefold serially diluted antibodies were added and incubated at room temperature for 2 h. The plates were washed with PBS containing 0.05% Tween 20. Bound antibodies were detected by HRP-conjugated anti-FLAG tag antibody (Sino Biological). The assay was developed at room temperature with TMB substrate (Solarbio) and OD value was measured at 450 nm with a microplate reader.

[2] = target: T1, recombinant human ROR1 (full-length …); experiment: ELISA, antigen coated on the plate, biotinylated antibody detected with HRP streptavidin
Protocol: (§1) ELISA was performed according to standard protocols, to determine binding affinity of anti-ROR1 mAB 2H3 and 3A3 to full extracellular domain and individual extracellular Ig-like domain, frizzled domain, and kringle domain of human ROR1. Briefly, recombinant human ROR1 (AcroBiosystems) were coated on Corning EIA/RIA high-binding 96-well plates (Corning Inc.) at 50 ng per well overnight at 4° C. and blocked with 3% nonfat milk in PBS (pH7.4). Fivefold serially diluted biotinylated antibodies were added and incubated at room temperature for 2 h. The plates were washed with PBS containing 0.05% Tween 20. Bound antibodies were detected by HRP-conjugated streptavidin (Sino Biological). The assay was developed at room temperature with TMB substrate (Solarbio) and monitored at 450 nm with a microplate reader. The half-maximal binding (EC₅₀) was calculated by fitting the data to the Langmuir adsorption isotherm.

[3] = target: T2, human ROR1 (39-151, Ig-like domain) protein (human, UniProt Q01973 39-151); experiment: as above
T2 construct: range 39-151; Bought protein; also called Ig-like domain of ROR1
T2 sequence (Q01973 39-151 limits assumed, form in doubt): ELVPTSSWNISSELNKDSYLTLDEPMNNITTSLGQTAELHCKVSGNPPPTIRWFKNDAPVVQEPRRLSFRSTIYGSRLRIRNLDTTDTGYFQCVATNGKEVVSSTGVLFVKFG
Protocol: as §1

[4] = target: T3, human/Cynomolgus/Rhesus macaque ROR1 (308-395, Kringle domain) protein (human/Cynomolgus/Rhesus macaque, UniProt Q01973 308-395); experiment: as above
T3 construct: range 308-395; Bought protein; also called kringle domain of ROR1
T3 sequence (Q01973 308-395 limits assumed, form in doubt): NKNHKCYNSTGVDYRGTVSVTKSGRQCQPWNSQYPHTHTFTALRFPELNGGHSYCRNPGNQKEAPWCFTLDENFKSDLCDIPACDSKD
Protocol: as §1

Binder	EC50 [1] [nM]	EC50 [2] [nM]	EC50 [3] [nM]	EC50 [4] [nM]
B1	~36	–	–	–
B2	–	0.18	3.1	–
B3	~16	–	–	–
B4	–	0.2	–	1.2
